In US20030119716A1, “Methods for screening, treating and diagnosing G-protein coupled receptor-related disorders and compositions thereof” (Wyeth, priority 2001, published 2003):

How the values were obtained:
[1] = molecular target: Gαi1; test: cell-based or functional assay
[2] = molecular target: Gαq/i chimera; test: cell-based or functional assay

attenuation of SRE activation (SRE-luciferase reporter, CHO-D2R cells co-transfected with Gαi1) [1] | inhibition of SRE activation (SRE-luciferase reporter, all quinpirole concentrations, CHO-D2R cells) [1] | reduction in quinpirole-stimulated SRE activation (SRE-luciferase reporter, 100 nM quinpirole, CHO-D2R cells) [1] | reduction in SRE activation (SRE-luciferase reporter, CHO-D2R cells) [2] | Substance
25 to 30% | – | – | – | human RGSz1 (from UniProt O76081 1-388)
– | > 80% | 85% | 60% | human RGS4 (from UniProt P49798 1-205)
